Measured values published in patent publication US20220119824A1.

Columns and labels:
[1] = biological target: IL-12 receptor on HEK-Blue™ IL-12 cells (InvivoGen) (UniProt P42701); test: cell-based or functional assay
[2] = biological target: recombinant murine CTLA-4-human IgG1 Fc chimera (R&D Systems) (mouse; human) (UniProt P09793); test: competitive ELISA: mouse CD86 coated (competitor), murine CTLA-4-human IgG1 Fc chimera at 10 ng/ml mixed with scFv supernatant, anti-human IgG1-HRP
[3] = biological target: recombinant murine CTLA-4-human IgG1 Fc chimera (R&D Systems) (mouse; human) (UniProt P09793); test: competitive ELISA: mouse CD80 coated (competitor), murine CTLA-4-human IgG1 Fc chimera at 10 ng/ml mixed with scFv supernatant, anti-human IgG1-HRP
[4] = biological target: mouse TGF-β1 (R&D systems) (mouse) (UniProt P04202); test: direct ELISA with mouse TGF-β1 on concentrated supernatant of transfected HEK293T cells
[5] = biological target: mouse TGF-β1 (R&D systems) (mouse) (UniProt P04202); test: direct ELISA with mouse TGF-β1 on supernatant of transfected HEK293T cells

Row | Substance | STAT4-SEAP reporter in HEK-Blue IL-12 cells co-cultured with transfected HEK cells (Absorbance/% GFP) (Absorbance/% GFP) [1] | other results
1 | huIL-12p70 (soluble human IL-12p70) (from UniProt P29460 23-328; P29459 23-219) (ligand) | 0.11 | 
2 | Human membrane bound IL-12p70 (ligand) | 0.237 | 
3 | Anti-CTLA-4 scFv (ipilimumab scFv antibody fragment) |  | % CD86 Blockade Activity [2]: 32.5%; % CD80 Blockade Activity [3]: 7%
4 | muIL-12p70 (soluble murine IL-12p70) (from UniProt P43432 23-335; P43431 23-215) (ligand) | 0.11 | 
5 | Soluble mouse TGFβ receptor II Fc (from UniProt Q62312 24-166) (Fc fusion) |  | Absorbance at 450 nm (absorbance at 450 nm) [4]: 1.52; Absorbance at 450 nm (absorbance at 450 nm) [5]: 1.51
6 | Mouse membrane bound IL-12p70 (ligand) | 0.117 | 
